Consider four molecules from patent US20230183354A1 (IMMIOS HOLDING B V, published 2023).

For test [1], the target named is T1, human CD103 (integrin Alpha-E) / human integrin Beta-7 heterodimer on cells (human, UniProt P38570 19-1179; P26010 20-798).
T1 construct: the assay field tells which cells; also called hCD103/hBeta7; CHO.K1-hCD103/hBeta7
In words: flow cytometry competition on CD103+CD8+ T cells; pre-incubation with unlabeled IgG (f2); table n=1. As for the experimental part: (§1) Percentage binding of fluorescently labeled mAbs was determined using flow cytometry. Maximum binding was set at 100%
(In general: A flow cytometer gives signals particle by particle.)

For test [2], the target named is T1, human CD103 (integrin Alpha-E) / human …. As to the kind of experiment: flow cytometry competition on CD103+CD8+ T cells; pre-incubation with unlabeled 05A; table n=2. As for the experimental part:
(§2) Percentage binding of fluorescently labeled mAbs was determined using flow cytometry. Maximum binding was set at 100%.
as §1

For test [3] the target is unchanged. In words: cell ELISA on CHO.K1-hCD103/beta7 cells, OD450-620, upper left panel.
The target is the same in test [4]. In words: flow cytometry competition on CD103+CD8+ T cells; pre-incubation with unlabeled 03A; table n=1. As for the experimental part:
as §2, §1

The target is the same in test [5]. In words: flow cytometry competition on CD103+CD8+ T cells; pre-incubation with unlabeled 05A; table n=1. As for the experimental part:
as §2, §1

Test [6] has the same target. In words: flow cytometry competition on CD103+CD8+ T cells; pre-incubation with unlabeled BERACT; table n=1. As for the experimental part: as §2, §1
Test [7] has the same target. As to the kind of experiment: flow cytometry competition on CD103+CD8+ T cells; pre-incubation with unlabeled 07A; table n=2. As for the experimental part:
as §2, §1

Test [8] shares this target. As to the kind of experiment: flow cytometry competition on CD103+CD8+ T cells; pre-incubation with unlabeled 02A; table n=2. As for the experimental part:
as §2, §1

The target is the same in test [9]. In words: flow cytometry competition on CD103+CD8+ T cells; pre-incubation with unlabeled 01A; table n=1. As for the experimental part:
as §2, §1

For test [10] the target is unchanged. In words: flow cytometry competition on CD103+CD8+ T cells; pre-incubation with unlabeled 06A; table n=2. As for the experimental part: as §2, §1

T1 sequence (P38570 19-1179 limits assumed, chain 1 of 2): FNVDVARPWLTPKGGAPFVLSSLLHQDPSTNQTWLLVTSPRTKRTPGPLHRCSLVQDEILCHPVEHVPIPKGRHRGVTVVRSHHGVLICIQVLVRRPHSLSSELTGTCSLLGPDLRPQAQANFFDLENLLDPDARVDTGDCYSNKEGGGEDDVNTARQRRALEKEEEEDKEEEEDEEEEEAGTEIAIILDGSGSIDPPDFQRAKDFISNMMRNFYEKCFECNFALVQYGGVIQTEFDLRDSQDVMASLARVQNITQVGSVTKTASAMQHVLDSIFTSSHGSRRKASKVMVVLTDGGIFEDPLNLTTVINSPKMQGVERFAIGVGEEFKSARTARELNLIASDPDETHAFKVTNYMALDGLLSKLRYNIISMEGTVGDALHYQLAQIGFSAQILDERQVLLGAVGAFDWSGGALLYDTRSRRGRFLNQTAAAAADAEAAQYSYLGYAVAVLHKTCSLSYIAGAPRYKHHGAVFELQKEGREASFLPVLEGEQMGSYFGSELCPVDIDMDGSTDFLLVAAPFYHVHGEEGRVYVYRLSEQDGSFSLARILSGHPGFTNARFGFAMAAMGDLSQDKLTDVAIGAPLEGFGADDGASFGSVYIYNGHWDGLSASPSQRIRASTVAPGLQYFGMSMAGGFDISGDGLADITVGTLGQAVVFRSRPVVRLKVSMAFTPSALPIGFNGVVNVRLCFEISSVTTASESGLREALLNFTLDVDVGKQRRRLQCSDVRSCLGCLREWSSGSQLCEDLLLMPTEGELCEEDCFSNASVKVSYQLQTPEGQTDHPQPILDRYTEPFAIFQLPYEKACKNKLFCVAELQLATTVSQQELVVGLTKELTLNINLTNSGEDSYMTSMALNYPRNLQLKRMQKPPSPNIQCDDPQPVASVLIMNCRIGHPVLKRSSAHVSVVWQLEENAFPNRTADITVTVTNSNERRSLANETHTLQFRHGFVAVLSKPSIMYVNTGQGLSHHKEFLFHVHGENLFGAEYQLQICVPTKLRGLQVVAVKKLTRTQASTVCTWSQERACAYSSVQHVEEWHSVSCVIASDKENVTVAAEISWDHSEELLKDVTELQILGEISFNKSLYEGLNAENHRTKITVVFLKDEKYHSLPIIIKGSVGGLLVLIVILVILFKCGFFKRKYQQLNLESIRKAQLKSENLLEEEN
T1 sequence (P26010 20-798 limits assumed, chain 2 of 2): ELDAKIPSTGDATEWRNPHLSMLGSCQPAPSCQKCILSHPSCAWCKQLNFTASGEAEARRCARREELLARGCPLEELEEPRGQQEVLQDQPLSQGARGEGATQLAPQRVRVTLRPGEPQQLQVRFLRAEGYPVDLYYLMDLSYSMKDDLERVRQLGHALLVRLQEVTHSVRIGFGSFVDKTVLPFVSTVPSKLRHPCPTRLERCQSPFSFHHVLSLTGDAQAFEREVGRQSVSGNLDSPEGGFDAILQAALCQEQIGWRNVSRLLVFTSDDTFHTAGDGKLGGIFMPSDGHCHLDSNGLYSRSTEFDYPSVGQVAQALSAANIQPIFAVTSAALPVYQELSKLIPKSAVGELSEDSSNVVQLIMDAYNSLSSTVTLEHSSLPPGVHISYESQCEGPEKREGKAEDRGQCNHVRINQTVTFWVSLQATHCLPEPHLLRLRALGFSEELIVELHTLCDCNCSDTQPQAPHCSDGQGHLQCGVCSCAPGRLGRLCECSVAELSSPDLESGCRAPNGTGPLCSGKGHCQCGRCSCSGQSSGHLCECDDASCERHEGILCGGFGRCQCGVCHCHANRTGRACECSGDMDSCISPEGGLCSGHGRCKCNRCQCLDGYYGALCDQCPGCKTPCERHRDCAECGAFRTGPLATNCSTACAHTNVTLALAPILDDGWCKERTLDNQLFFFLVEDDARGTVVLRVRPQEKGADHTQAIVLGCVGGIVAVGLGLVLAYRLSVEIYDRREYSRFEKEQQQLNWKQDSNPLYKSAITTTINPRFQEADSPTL

B1: hCD103.06A (antibody, mouse IgG1, V domains shown)
VH: QVQLQQPGSELVRPGASVKLSCKASGYTFTSYWMHWVKQRHGQGLEWIGNIYPGSGSTNYDEKFKSKGTLTVDTSSSTAYMHLSSLTSEDSAVYYCTRGVYDNPYYFDYWGQGTTLTVSS
VL: DIQMTQSSSNLSVSLGGRVTITCKASDHINNWLAWYQQKPGNAPRVLISGATSLETGVPSRFSGSGSGKDYTLSITSLQTEDVATYYCQQYWSIPLTFGAGTKLELK
notes: also called clone 06A; hCD103.06 mAb
For orientation: EC50 (read off the curve) means the midpoint of the concentration-response curve. A high value points to lower potency in that assay. Regarding B1, the “% binding of the fluorescently labeled mAb (IgG pre-incubation = 100)” value (shortened to “% binding”) in test [1] came out at 100%; in test [2], 102%; in test [4], 101%; in [5], 101%; in test [6], 84.9%; in test [7] it was 97%. The “% binding” value was 103% in test [8], 96% in test [9] and 18.9% in test [10]. Further, in [3], the concentration for a half-maximal effect (EC50 (read off the curve)) is around 0.02 µg/mL.

B2: hCD103.05A (antibody, mouse IgG1, V domains shown)
VH: EVQLQQSGPELEKPGASAKISCKASGYSFTGYNMNWVKQSNGKSLEWIGNIDPYYGGTSYNQKFKGKATLTVDKSSSTAYMQLKSLTSEDSAVYYCARSFYGYDAGSPYNYAMDYWGQGTPVTVSP
VL: DIVMTQSHKFMSTSVGDRVSITCKASQDVGTFVAWYQQKPGQSPKLLIYWASTRHTGVPDRFTGSGSGTDFTLTISNVQSEDLADYFCHQYSSYPYTFGGGTQLEIK
notes: Also tested labelled with AF647, conjugated with Df and labelled with 89Zr; these are written under this molecule; also called clone 05A; hCD103.05 mAb
As for B2, the “% binding” value was determined as 100% in test [1]; 14.2% in test [2]; 100% in test [4]; 13.1% in test [5]; 4.2% in [6]; 56.9% in test [7]. For the same molecule, the “% binding” value in test [8] is 4.6%; in [9] it was 2.6%; in test [10] it was 87.4%. For the same molecule, the “EC50 (read off the curve)” value in test [3] is around 0.02 µg/mL.

B3: hCD103.07A (antibody, mouse IgG1, V domains shown)
VH: EVQLQESGPSLVKPSQTLSLTCSVTGDSITSGYWNWIRKFPGNKLEYMGYITYSGSTYYNPSLKSRISITRDTSKNQYYLQLNSVTTEDTATYYCARNYYGSSSMDYWGQGTSVTVSS
VL: DIVMTQSQKFMSTSVADRVSVTCKASQNVGSDVAWYQQKPGQSPKSLIYSASYRYSGVPDRFTGSGSGTDFTLTISNVQSEDLAEYFCQQYNSYPSTFGGGTKLEIK
notes: also called clone 07A
Regarding B3, the “% binding” value in test [1] is 100%; in test [2], 11.4%; in [4], 94.4%; in test [5], 7.9%; in test [6] it was 0.7%; in test [7], 29.8%. The “% binding” value in test [8] is 0.9%; in test [9], 0.7%; in [10] it was 81.6%.

B4: hCD103.01A (antibody, V domains shown)
VH: EVQLQESGPSLVKPSQTLSLTCSVTGDSITSGYWNWIRKFPGNKLEYMGYITYSGSTYYNPSLKSRISITRDTSKNQYYLQLNSVTTEDTATYYCTRHYYGSDAMDYWGQGTSVTVSS
VL: DIVMTQSHKFMSTSVGDRVSITCKASQDVSIAVAWYQQRPGQSPKLLIYSASYRYTGVPDRFTGSGSGTDFTFTISSVQAEDLAVYYCQQHYSTPWTFGGGTKLEIK
notes: Also tested labelled with AF647, conjugated with Df and labelled with 89Zr; these are written under this molecule; also called clone 01A; hCD103.01 mAb
For B4, the “% binding” value in test [1] amounted to 100%; in [2], 77.4%; in [4] it was 96.7%; in test [5], 71.8%; in test [6], 2.5%; in test [7], 26.6%. In addition, the “% binding” value in test [8] turned out to be 3%; in test [9], 1.5%; in test [10] it was 90.9%. In test [3], the “EC50 (read off the curve)” value was around 0.02 µg/mL.
